The values that follow come from patent US20220306747A1 (CHINA MEDICAL UNIVERSITY HOSPITAL, published 2022).

In experiment [1] the target is HLA-G recombinant protein (CAT #: TP305216, Origene) (human) (UniProt P17693). The experiment in a line: competitive ELISA, HLA-G coated, competitor biotinylated KIR2DL4. (An ELISA detects its analyte on a solid surface through an enzyme-linked reagent.)
Experiment [2] has the same target. Description: competitive ELISA, HLA-G coated, competitor biotinylated LILRB1.
The target in experiment [3] is T1, HLA-G recombinant protein (CAT #: TP305216, Origene) (human, UniProt P17693 25-338, limits assumed).
T1 construct: Bought recombinant protein coated on the plate; also called human leukocyte antigen-G
Description: competitive ELISA, HLA-G coated, competitor biotinylated KIR2DL4; blocking normalized to 87G. How it is done:
(§1) The procedure is as follows. HLA-G recombinant protein (CAT #: TP305216, Origene) (0.2 mg/ml, 100 μl each well) was coated on 96-well plate overnight at 4° C. Next day, the coating buffer was discarded, and blocked with 3% skin milk for 2 hr at room temperature, followed by washing 5 times with PBST (0.05% Tween in PBS). […] After 9 times of washing, each well was incubated with 100 μl PBST containing streptavidin-HRP conjugates (ThermoFisher, Cat No: N100, dilution titer: […]) for 2 hr at room temperature. After 9 times of washing with PBST, 50 μl of TMB substrate for detecting HRP activity (ThermoFisher, Cat No:N301) was added. The reactions were stopped by adding 50 μl stop solution (ThermoFisher, Cat No:N600), and it was measured by ELISA reader using 450 nm channel.

Experiment [4] concerns the target T1, HLA-G recombinant protein (CAT #: …). Description: competitive ELISA, HLA-G coated, competitor biotinylated LILRB1; blocking normalized to 87G. How it is done:
as §1

The IC50 is the concentration that inhibits the measured activity by half.

With “commercial anti-HLA-G monoclonal antibody (87G)”, the values for the IC50 in experiment [1] and in experiment [2] were 0.0414 µg/mL and 0.101 µg/mL, respectively.

B1: anti-HLA-G nanobody clone #9 (VHH)
VHH: QVQLVESGGGSVQAGGSLRLSCEASGRTYSSNCMGWFRQAPGKERENVAAIYTGGDGITYADSVKGRFTISQDKLKNMLYLQMDSLKPEDTAMYYCAADPNRRRMGVGGSCLRANFGPGGQGTQVTVSS
notes: also called anti-tumor antigen nanobody; anti-HLA-G nanobody (NB)
Take B1: the values for the IC50 in experiment [3] and in experiment [4] were 0.00614 µg/mL and 0.000825 µg/mL, respectively.

B2: anti-HLA-G nanobody clone #20 (VHH)
VHH: EVQLVESGGGSVRPGETLRLSCTASGFTVDDSDMSWYRQAPGDECELVSSITSGGGKYYSHPVKGRFTIFRDKGKNTMYLQMNSLVPEDTGVYYCVAPAWTGYGCTWGQGTQVTVSS
notes: as for B1
For B2, the IC50 in experiment [3] stood at 0.814 µg/mL; in experiment [4], 0.000174 µg/mL.
